{"source": "patent US20140030416A1", "experiment_in_all_cases": "cell-based or functional assay", "key": {"[1]": {"biological_target": "Trypsin-like protease (TL1) from Fusarium oxysporum (Fusarium oxysporum) (UniProt P35049)", "sequence (P35049 25-248 limits assumed)": "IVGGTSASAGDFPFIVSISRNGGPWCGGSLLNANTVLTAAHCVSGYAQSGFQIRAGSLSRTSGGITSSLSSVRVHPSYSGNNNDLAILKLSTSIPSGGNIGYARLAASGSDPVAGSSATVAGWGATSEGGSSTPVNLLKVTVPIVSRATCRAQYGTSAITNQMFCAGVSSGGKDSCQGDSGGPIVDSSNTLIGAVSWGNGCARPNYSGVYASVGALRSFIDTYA"}, "bovine trypsin (bovine)": {"biological_target": "bovine trypsin (bovine) (UniProt P00760)"}, "[2]": {"biological_target": "porcine trypsin (porcine) (UniProt P00761)"}}, "data": [{"substance": "Bowman-Birk inhibitor (Cat # T-9777, Sigma-Aldrich) (from UniProt P01055 40-110)", "values": [{"measurement": "% residual activity at 0.00048 mg/ml Bowman-Birk inhibitor", "setting": "[1]", "result": 117, "unit": "%"}, {"measurement": "% residual activity at 0.00097 mg/ml Bowman-Birk inhibitor", "setting": "[1]", "result": 111, "unit": "%"}, {"measurement": "% residual activity at 0.00195 mg/ml Bowman-Birk inhibitor", "setting": "[1]", "result": 103, "unit": "%"}, {"measurement": "% residual activity at 0.0039 mg/ml Bowman-Birk inhibitor", "setting": "[1]", "result": 109, "unit": "%"}, {"measurement": "% residual activity at 0.0078 mg/ml Bowman-Birk inhibitor", "setting": "[1]", "result": 82, "unit": "%"}, {"measurement": "% residual activity at 0.0156 mg/ml Bowman-Birk inhibitor", "setting": "[1]", "result": 61, "unit": "%"}, {"measurement": "% residual activity at 0.0313 mg/ml Bowman-Birk inhibitor", "setting": "[1]", "result": 32, "unit": "%"}, {"measurement": "% residual activity at 0.0625 mg/ml Bowman-Birk inhibitor", "setting": "[1]", "result": 13, "unit": "%"}, {"measurement": "% residual activity at 0.125 mg/ml Bowman-Birk inhibitor", "setting": "[1]", "result": 5.8, "unit": "%"}, {"measurement": "% residual activity at 0.25 mg/ml Bowman-Birk inhibitor", "setting": "[1]", "result": 2.2, "unit": "%"}, {"measurement": "% residual activity at 0.5 mg/ml Bowman-Birk inhibitor", "setting": "[1]", "result": 0.8, "unit": "%"}, {"measurement": "% residual activity at 0.00048 mg/ml Bowman-Birk inhibitor", "setting": "bovine trypsin (bovine)", "result": 6.9, "unit": "%"}, {"measurement": "% residual activity at 0.00097 mg/ml Bowman-Birk inhibitor", "setting": "bovine trypsin (bovine)", "result": 5.3, "unit": "%"}, {"measurement": "% residual activity at 0.00195 mg/ml Bowman-Birk inhibitor", "setting": "bovine trypsin (bovine)", "result": 0.1, "unit": "%"}, {"measurement": "% residual activity at 0.0039 mg/ml Bowman-Birk inhibitor", "setting": "bovine trypsin (bovine)", "result": -0.4, "unit": "%"}, {"measurement": "% residual activity at 0.0078 mg/ml Bowman-Birk inhibitor", "setting": "bovine trypsin (bovine)", "result": 0, "unit": "%"}, {"measurement": "% residual activity at 0.0156 mg/ml Bowman-Birk inhibitor", "setting": "bovine trypsin (bovine)", "result": -1.5, "unit": "%"}, {"measurement": "% residual activity at 0.0313 mg/ml Bowman-Birk inhibitor", "setting": "bovine trypsin (bovine)", "result": 0.1, "unit": "%"}, {"measurement": "% residual activity at 0.0625 mg/ml Bowman-Birk inhibitor", "setting": "bovine trypsin (bovine)", "result": 0, "unit": "%"}, {"measurement": "% residual activity at 0.125 mg/ml Bowman-Birk inhibitor", "setting": "bovine trypsin (bovine)", "result": 0, "unit": "%"}, {"measurement": "% residual activity at 0.25 mg/ml Bowman-Birk inhibitor", "setting": "bovine trypsin (bovine)", "result": 0, "unit": "%"}, {"measurement": "% residual activity at 0.5 mg/ml Bowman-Birk inhibitor", "setting": "bovine trypsin (bovine)", "result": 0, "unit": "%"}, {"measurement": "% residual activity at 0.00048 mg/ml Bowman-Birk inhibitor", "setting": "[2]", "result": 11, "unit": "%"}, {"measurement": "% residual activity at 0.00097 mg/ml Bowman-Birk inhibitor", "setting": "[2]", "result": 9.4, "unit": "%"}, {"measurement": "% residual activity at 0.00195 mg/ml Bowman-Birk inhibitor", "setting": "[2]", "result": 8.3, "unit": "%"}, {"measurement": "% residual activity at 0.0039 mg/ml Bowman-Birk inhibitor", "setting": "[2]", "result": 6.2, "unit": "%"}, {"measurement": "% residual activity at 0.0078 mg/ml Bowman-Birk inhibitor", "setting": "[2]", "result": 3.2, "unit": "%"}, {"measurement": "% residual activity at 0.0156 mg/ml Bowman-Birk inhibitor", "setting": "[2]", "result": 2.2, "unit": "%"}, {"measurement": "% residual activity at 0.0313 mg/ml Bowman-Birk inhibitor", "setting": "[2]", "result": 1, "unit": "%"}, {"measurement": "% residual activity at 0.0625 mg/ml Bowman-Birk inhibitor", "setting": "[2]", "result": 6.4, "unit": "%"}, {"measurement": "% residual activity at 0.125 mg/ml Bowman-Birk inhibitor", "setting": "[2]", "result": 0.2, "unit": "%"}, {"measurement": "% residual activity at 0.25 mg/ml Bowman-Birk inhibitor", "setting": "[2]", "result": 0.1, "unit": "%"}, {"measurement": "% residual activity at 0.5 mg/ml Bowman-Birk inhibitor", "setting": "[2]", "result": 0.1, "unit": "%"}]}]}
